Reference: paper PMC4610036 (Journal of molecular catalysis. B, Enzymatic, 2015)

Target: the molecule itself
Experiment: crystal structure

B1: β-ketoacyl thiolase B of Ralstonia eutropha (enzyme, UniProt Q0KBP1 1-394, looked up)
chain: MTREVVVVSGVRTAIGTFGGSLKDVAPAELGALVVREALARAQVSGDDVGHVVFGNVIQTEPRDMYLGRVAAVNGGVTINAPALTVNRLCGSGLQAIVSAAQTILLGDTDVAIGGGAESMSRAPYLAPAARWGARMGDAGLVDMMLGALHDPFHRIHMGVTAENVAKEYDISRAQQDEAALESHRRASAAIKAGYFKDQIVPVVSKGRKGDVTFDTDEHVRHDATIDDMTKLRPVFVKENGTVTAGNASGLNDAAAAVVMMERAEAERRGLKPLARLVSYGHAGVDPKAMGIGPVPATKIALERAGLQVSDLDVIEANEAFAAQACAVTKALGLDPAKVNPNGSGISLGHPIGATGALITVKALHELNRVQGRYALVTMCIGGGQGIAAIFERI
  stoichiometry N: 4
